The values that follow are results of earlier work, collected in article PMC6008586, “Analysis of transition state mimicry by tight binding aminothiazoline inhibitors provides insight into catalysis by human O-GlcNAcase” (Chemical Science, 2016).

For the data set, the target named is Asp174 (UniProt position 174, FALLFDDIDHN). Description: kinetics. The note with it: the article refers the ionisation state to the resting enzyme; free-enzyme versus enzyme-substrate complex is not specified.

For orientation: pKa means the negative logarithm of the acid dissociation constant. Take “O-GlcNAcase (OGA, protein O-GlcNAc hydrolase, GH84) (Homo sapiens)”: the pKa is 5.2.
